Assay: yeast display, Sf9 membrane polyspecificity reagent, FACS + sequencing; frameworks hold sequencing errors
Outline: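 Polyreactivity labels are assigned by the sorting gate from which each nanobody was recovered. The gates were low and high (top ~1%), set on anti-HA fluorescence for expression and streptavidin fluorescence for reagent binding. Before sorting, galactose-induced (36–48 hours) yeast display cells were stained for 1 hour at 4 °C with 10% biotinylated, detergent-solubilized Sf9 membrane reagent.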

Row | Sequence | polyreactivity (PSR sort gate)
1 | QVQLVESGGGLVQAGGSLRLSCAASGSIFVAYAMGWYRQAPGKERELVAAITAVGSTYYADSVKGRFTISRDNAKNTVYLQMNSLKAEDTAVYYCAKRQLRPTYRYGYWGQGNQVTVSS | low polyreactivity
2 | QVQLVESGGGLVQAGGSLRLSCAASGRTFRGYAMGWYRQAPGKERELVAAISWSGGSTYYADSVKGRFTISRDNAKNTVYLQMNSLKPEDTAVYYCNAVYRGVAYDYWGQGTQVTVSS | high polyreactivity
3 | QVQLVESGGLLVQAGGSLRLSCAASGSTFYYNDMGWYRQAPGKEREFVAAISSRGGSTYDADSVKGRFTISRDNAKNTVYLQMNSLKPEDTAVYYCAAKDRHRYDWGQGTQVTVSS | high polyreactivity
4 | QVQLVESGGGLVQAGGSLRLSCAASGFTFRYNAMGWYRQAPGKERELVAAITNGGSTYADSVKGRFTISRDNAKNTVYLQMNSLKPEDTAVYYCAADYFVLTYYLWCYSPYKSFYYWGQGTQVTVSS | low polyreactivity
5 | QVQLVESGGGLVQAGGSLRLSCAASGRIFEPYAMGWYRKAPGKERELLAAITSGGSTDYADSVKGRFTISRDNAKNTVYLQMNSLKPEDTAVYYCATRWGYAVSFDFYFLLSGVDYWGQGTQVTVSS | low polyreactivity
6 | QVQLEESGGGLVQAGGSLRLTCAASGSTFVRYVMGWYRQAPGKERELVAAISRRGGSTYYADSVKGRFTISRDNAKNTVYLEMNSLKPEDTAVYYCARTVGYRTLLESDSWGQGTQVTVSS | high polyreactivity
7 | QVQIVESGGGLVQAGGSLRLSCAASGSTFQCYAMGWYRQAPGKERQLVAAINKSGGTTYYADSVKGRFTISRDNAKNTVYLQMNSLNPEDTAVYSCATDNPVVYQPCNMDYWGQGTQVTVSS | low polyreactivity
8 | QVQLVESGGCLVQAGGSLRLSCAASGSIFPGYAMGWYRQATGKERELVAAISTSGGSTYADSVKGRFTISRDNAKNTVYLQMNSLKPEDTAVYYCAATYTYTSPVYYYLDGPWPYDYWGQGTQVTVSS | low polyreactivity
9 | QVQLVESGGGLVQAGGSLRLSCAASGFTFTTYVMGWSRQAPGKERELVAAISRRGTSTRYADSVKGRFTISRDNAKNTVYLQMNSLIPEDTAVYYCAADRPYSIVPYDYWGQGTQVTVSS | high polyreactivity
10 | QVQLVESGGGLVQAGGSLRLSCAASGSTFWEYAMGWYRQAPGKEREFVAAISYRGGGTYYADSVKGRFTISRDNAKNTVYLQKNSLKPEDTAVYYCAARRWRGRYWGDYWGQGTQVTVSS | high polyreactivity
11 | QVQLVESGGGLVQAGGSLRLSCAASGNTFPPNAMGWYRQAPGKERELVAAISWSGDSTYYADSVKGRFTISRDNAKNTVYLQMNSLKPEDTAVYYCAAAIFGEYEYWGQGTQVTVSS | low polyreactivity
12 | QVQLVESGGGLVQAGGSLRLSCAASGITFSVNAMGWYRQAPGKEREFVAAISSSGGSTYYADSLKGRFTISRDNAKNTVYLQMNSLKPEDTAVYYCAASGRVQRQHYRPYPYGYWGQGTQVTVSS | high polyreactivity
13 | QVQHVESGGGLVQAGGSLRLSCAASGRIFIVNAMGWYRQAPGKERELVAAISYRGGSTYYADSVKGRFTISRDNAKNTVYLQMNSLKPEDTAVYYCAADRYSYLGYPYEYEYWGQGTQVTVSS | low polyreactivity
14 | QVPLAETGGGLVQAGGSLRLSCASSGSIYRYAMGWYRKEPGKEREFVAANTWNGGSTYYADSVKGRLTRSLDYAKNTVYLPMNSLKPEDTAVYNCAADWSYFRRHFDYWVQGTQVTVSS | high polyreactivity
15 | QVQLVESGVGLVQAGGSLRLSCAASGSIFYENAMGWYRQEPGKEREFVATIDLIGDRTFYADSVKVRFTISRDNAKNTVYLQMNSLKPEDTAVYYCAAERVGVFFRYDYWGQGTQVTVSS | low polyreactivity
16 | QVQLVESGGGLVQAGGSLRLSCAASGLIFANNAMGWYRQAPGKERELVAVISRGGRTYYADSVKGRFTISRDNAKNTVYLQMNSLKPEDTAVYYCAKPVLVGLGSRYDYWGQGTQVTVSS | high polyreactivity
17 | QLQLVESGGGLVQAGGSLRLSCAASGNIFNYYAMGWYRQATGKERELVAAIRSGARTSYADSVKGRFTISRDNAKNTVYLQMNSLKPEDTAVYYCAASRFRWVQRDDYWGQGTQVTVSS | high polyreactivity
18 | QVQLVESGVGLVQAGGSLRLSCAASGIIFTSNTMGWYRPAPGKEREFVASINWNGSSTYADSVKGRFTISRDNAKNTVYLQMNSLKPEDTAVYYCNADYKRNSVQFSLYDYWGQGTQVTVSS | low polyreactivity
19 | QVQLVESGGGLVQAGGSLRLSCAASGFTFSCYAMGWYRQAPGKEREFVAAISRRGAITSYADSVKGRFTISRDNAKNTVYLQMNSLKPEDTAVYYCNARYPHYYYSAYNYWGQGSQVTVSS | high polyreactivity
20 | QVQLVESGGGLVQAGGSLRLSCAASGRIFDAKVMGWYRQAPGKERELVAAISASAGSTSYADSVKGRFTISRDNAKNTVYLQMNSLKPEDTSVYYCAADPYQLWHYYYFGMDYWGQGTQVTVSS | low polyreactivity

Row | Sequence | polyreactivity (PSR sort gate)
21 | QVQLVESGAGLVQAAGSLRLSCAASGRTFSRNAMGWYRQAPGQERELVARIRSGGSTYYADSVKGRFTISRDNAKNTVYLQMNSLKPDETAVFYLAADRYGYQFDYWGQGTQVTVSS | high polyreactivity
22 | QVQLVESGGGLVQAGGSLRLSCAASGRIFYSNAMGWYRQAPGKERELVAAIRDSAGSTRYADSVKGRFTISRDNAKNTVYLQMNSLKPEDTAVYYCNKDYVSIYFEYLDDYWGQGTQVTVSS | low polyreactivity
23 | QVQLVESGGGLVQAGGSLRLSCAATGITLYGYFMGWYRQAPGKERELVAAISRSGGSTYYADSVMGRFTISRDNAKNTVYLQMNSLKPEDTAVYYCAKVPRYYYDSEFDYWGQGTQVTVSS | high polyreactivity
24 | QVQLVESGGGLVQAGGSLRLSCAASGSIFARYTMGWYRQAPGKERELVASITWRTGSTYYADSVKGRFTISRDNAKNTVYLQMNSLKPEDTAVYYCNKAYTITQYGWIPLGYWGQGTQVTVSS | high polyreactivity
25 | QVQLVDSGGGLVQAGGSLRLTCAACGSIFVNNSMGWSRQATGKQRELVAAISSRSSRTFYADSVKGRFTISRDNEKNTVFLQMNSLKPEDNAVYYCAVKKRAPDGDYWGLGTQVTVSS | high polyreactivity
26 | QVHLVESGGGLVQAGGSLRLSCAASGFIFTDYAMGWYRQAPGKERELVAAISSGGRTYYADSVKGRFTISRDNAKNTVYLQMNSLKPEDTAVYYCARGGRAEGWGQGTQVTVSS | high polyreactivity
27 | QVQLVESGGGLVQAGGSLRLSCAASGSIIPSYSMGWYRQAPGKERDLVATIGRGGTTNYADSVKGRFTISLDNAKNTVYLQMNSLKPEDTAVYYCYAERIWRYKYGYDYWGQGSQVTVSS | high polyreactivity
28 | QVQLVESGGGLVQAGGSLRISCAASGRILYRYAMGRYRQAPGKERELVAAITWRGGTTYYADSVKGRFTISRDNAKNTVYLQMNSLKPEDTAVYYCNADWWRTLESDYWGQGTQVTVSS | low polyreactivity
29 | QVQLVESGGGLVQAGGSLRLSCAASGSTYKGYAMGWYRQAPGKERELVAAISSSGGGTYYADSVKGRFTISRDNAKNTVYLQMNSLKPEDTAVYYCAATYYRGNYRTHYDYWGQGTQVTVSS | high polyreactivity
30 | QVQLVESWGGLVQEGGSLRVSCAASGSIFSHYAMGRYRQAPGKEREFVAAIPRGVSTYYADSVKGRFTISRDNAKNTVYLLMNSLKPEYTGVYSCNKTYVRGVHGVYLPITSYDYWGQGTQVTVSS | low polyreactivity
31 | QVQLVESGGGLVQAGRSLRLSCAASGTTFVIYDMGWSRQAPGKERDLVAGNSYSGGSTYYADSVKGRFTISRDNAKNTVYLQMNSLKPEDTAVYYCNAGVLVLLYAYLPSDLEYWGQGTQVTVSS | low polyreactivity
32 | QVQLVESGGGLVQAGGSLRLSCAASGIIFRGNAMGWYRQAPGKERELVAGISSRGGSTYYADSVKGRFTISRDNAKNTVYLQMNSLKPEDTAVYYCAAQYRSYLSGYGYWGQGTQVTVSS | high polyreactivity
33 | QVQLVESGGGLVQAGGSLRLSCASSGSTFISYAMGWYRPAPGKERELVAAISRRGDSTYYADSVKGRFTISRDNAKNTVYLQMNSLKPEDSAVYYCNAVEWDDYYYSYADYGYSYDYWGQGTQVTVSS | low polyreactivity
34 | HEHLQESRGGLVQAGGSLRLSCAASGSIFQATYMGWYRQAPRKEREFVASITYGSITNYADSVKGRFTIGRDNATDTLYLQMNSLKQEDTAVYYWAVDRHYIPAFHYWGQGTQVTVSS | low polyreactivity
35 | QVQLVESGGGLVQAGGSLRLSCAASGRTFRYYAMGWYRQAPGTERELVATITGSGGSTYYADSVKGRFTISRDNAKNSVYLQMNSLKPEDTAVYYCNARKVRYPYRWYDYWGQGTQVTVSS | high polyreactivity
36 | QVQLVESGGGLVQAGGSLRLSCAASGRTFVPYAMGWYRQAPGKERELVARIDSSGGSTYYADSVKGRFTISRDNAKNTVYLQMNSLKPEDTAVYYCAAVFYYWSLRSYYWGQGTQVTVSS | high polyreactivity
37 | QVQLVESGGGLVQAGGSLRLSCAASGSTFAHNAMGWYRQAPGKERELVATISGSGGTTRYADSVKGRFTISRDNAKNTVYLQMNSLKPEDTAGYYCAAQSSTPKLYDYWGQGTQVTVSS | low polyreactivity
38 | QVQLVESGGGLVQAGGSLRLSCAASGYIFGDYVMGWYRQAPGKERELVAAISSSGDTNYADSVKGRFTISRDNAKNTVYLQMNSLKPEDTAVYYCAAVDWIGRVHGKPWGGDYWGQGTQVTVSS | low polyreactivity
39 | QVQLVESGGGLVQAGGSLRLSCAASGITLYNYAMGWYRQAPGKERELVAAISLSGGRTYYADSVKGRFTISRDNAKNTVYLQMNSLKPEDTAVYYCAADWLNSDPYNYWGQGTQVTVSS | low polyreactivity
40 | QVQHVESGGGLVQAGGSLRLSCAASGSIFASNAMGWYRQPPGKEREFVAAISSSGTRTYSADSVKGRFTISRDNAKNTVYLQLNSLKQEDTAVYYCATRRGYDSVYYFYTLWSYYWGQGTQVTVSS | low polyreactivity

— the nanobody polyreactivity screen of Harvey et al. (2022)
